According to patent US7460961B2, “N-TRADD active site and uses thereof” (Genetics Institute, LLC, priority 2000, dated 2008):

Assay: Solubility and stability of the N-TRADD NMR sample
Type: physicochemical
Text: Cloning and site directed mutagenesis: The DNA sequence coding for the first 169 amino acids from N-TRADD was cloned in pRSETB (Invitrogen) after amplification by PCR. The primer at the 5′ end introduces an NdeI site upstream from the initiation site, and the primer at the 3′ end introduces a His tag after aa169. The sequence was confirmed by sequencing analysis. Single point mutations were introduced using Chameleon double-stranded site directed mutagenesis (Stratagene). The C-TRAF2 sequence (residues 262 to 501 of human TRAF2) was amplified by PCR using a 5′ end primer flanking with an XhoI and NdeI site, which introduces a Met before residue 262, and a 3′ end primer introducing 6×His before a stop codon followed by a NcoI site. The C-TRAF2 sequence was cloned into pAcSG2 (Pharmingen) by XhoI and NcoI sites for baculovirus expression. Protein expression and purification: The polypeptide for N-TRADD (1-169) was overexpressed in BL-21 E. coli. [U-^15N] or [U-^13C, U-^15N]. N-TRADD was purified from cells grown at 25° C. on minimal medium containing 2 g/L […] or [^15N]ammonium sulfate and 2 g/L [U-^13C]glucose. […]
Structure Determination: The structure of N-TRADD was determined from 2302 NMR derived restraints obtained using uniformly ^15N and ^15N/^13C labeled protein, with double and triple resonance NMR experiments. […]

B1: N-TRADD: N-terminal domain (amino acid residues 1-169, SEQ ID NO:1) of human TNFR-1 associated death domain protein (protein)
chain: MAAGQNGHEWVGSAYLFVESSLDKVVLSDAYAHPQQKVAVYRALQAALAESGGSPDVLQMLKIHRSDPQLIVQLRFCGRQPCGRFLRAYREGALRAALQRSLAAALAQHSVPLQLELRAGAERLDALLADEERCLSCILAQQPDRLRDEELAELEDALRNLKCGSGAR
- solubility (dithiothreitol (20 mM) required to prevent aggregation): ~1000 µM
- sample stability (~1 mM, 20 mM dithiothreitol): 6-8 weeks
